{"source": "paper PMC8137935", "about": "“Mechanosensitive channel YnaI has lipid-bound extended sensor paddles” (Communications Biology, 2021)", "proteins": {"B1": {"name": "YnaI (natural protein, Escherichia coli, UniProt P0AEB5 1-343, looked up)", "chain": "MIAELFTNNALNLVIIFGSCAALILMSFWFRRGNRKRKGFLFHAVQFLIYTIIISAVGSIINYVIENYKLKFITPGVIDFICTSLIAVILTIKLFLLINQFEKQQIKKGRDITSARIMSRIIKITIIVVLVLLYGEHFGMSLSGLLTFGGIGGLAVGMAGKDILSNFFSGIMLYFDRPFSIGDWIRSPDRNIEGTVAEIGWRITKITTFDNRPLYVPNSLFSSISVENPGRMTNRRITTTIGLRYEDAAKVGVIVEAVREMLKNHPAIDQRQTLLVYFNQFADSSLNIMVYCFTKTTVWAEWLAAQQDVYLKIIDIVQSHGADFAFPSQTLYMDNITPPEQGR", "notes": "YnaI, Escherichia coli, full-length, UniProt P0AEB5; in the model residues of TM-2 are built as Ala and N335-R343 have no density; Homoheptamer with co-purified lipids; Cloned into pET52b; also called mechanosensitive channel YnaI; MscS homolog YnaI; source: E. coli BL21(DE3) C43, purified in LMNG (TALON, thrombin cut, TALON flow-through, Superose 6); not shown: His-tag, C-terminal, cleaved"}}, "biological_target": "the molecule itself", "test": "cryo-EM structure; purified YnaI in LMNG at ~5 mg/ml, with 3 mM fluorinated Fos-Choline-8 added right before freezing; C7 symmetry imposed; 3.3 Å"}
{"protein": "B1", "values": [{"measurement": "stoichiometry N", "result": 7}]}
